Assay results: patent publication US20090232804A1 (GLENMARK PHARMACEUTICALS S A, published 2009)
Values joined by “and” are separate entries in the source; they are usually repeats but may differ in a detail not shown here. Identical values can stand only once.

Assays:
[1] = biological target: T1, purified human von Willebrand factor (vWF) (human, UniProt P04275 764-2813); assay: cell-based or functional assay
[2] = biological target: T1, purified human von Willebrand factor …; assay: cell-based or functional assay; remark: listed apart in the source

| Binder | EC50 [1] [nM] | Platelet agglutination EC50, single experiment [2] | Platelet agglutination EC50 mean value (from 2 independent expts.) [2] [nM] |
| --- | --- | --- | --- |
| humanized NMC-4 variant H2, L4 (IgG1) (antibody, V domains shown) VH: QVQLQESGPGLVKPSETLSLTCTVSGFSLTDYGVDWIRQPPGKGLEWIGMIWGDGSTDYNSALKSRLTISKDNSKNQVSLKLSSVTAADTAVYYCVRDPADYGNYDYALDYWGQGTSLTVSS VL: DIQMTQSPSSLSASVGDRVTITCSASQDINKYLNWYQQKPGKAPKLLIFYTSSLHSGVPSRFSGSGSGTDYTLTISSLQPEDIATYYCQQYEKLPWTFGQGTKVEIK | 0.14 |  |  |
| humanized NMC-4 variant H9L9 IgG4 (antibody, V domains shown) VH: QVQLQESGPGLVKPSETLSLTCTVSGFSLTDYGVDWIRQPPGKGLEWIGMIWGDGSTDYNSALKSRVTISVDTSKNQFSLKLSSVTAADTAVYYCARDPADYGNYDYALDYWGQGTLVTVSS VL: DIQMTQSPSSLSASVGDRVTITCSASQDINKYLNWYQQKPGKAPKLLIYYTSSLHSGVPSRFSGSGSGTDFTLTISSLQPEDFATYYCQQYEKLPWTFGQGTKVEIK |  | 1.3 nM and 1.5 nM | 1.4 |
| humanized NMC-4 variant H6, L5 (IgG1) (antibody, V domains shown) VH: QVQLQESGPGLVKPSETLSLTCTVSGFSLTDYGVDWIRQPPGKGLEWIGMIWGDGSTDYNSALKSRLTISVDNSKNQVSLKLSSVTAADTAVYYCVRDPADYGNYDYALDYWGQGTSLTVSS VL: DIQMTQSPSSLSASVGDRVTITCSASQDINKYLNWYQQKPGKAVKLLIFYTSSLHSGVPSRFSGSGSGTDYTLTISSLQPEDIATYYCQQYEKLPWTFGQGTKVEIK | 0.18 |  |  |
| humanized NMC-4 variant H14-L10, IgG4 (antibody, V domains shown) VH: QVQLQESGPGLVKPSETLSLTCTVSGGSISDYGWDWIRQPPGKGLEWIGMIWGDGSTDYNPSLKSRVTISVDTSKNQFSLKLSSVTAADTAVYYCARDPADYGNYDYALDYWGQGTLVTVSS VL: DIQMTQSPSSLSASVGDRVTITCQASQDISNYLNWYQQKPGKAPKLLIYYTSSLHSGVPSRFSGSGSGTDFTLTISSLQPEDFATYYCQQYEKLPWTFGQGTKVEIK |  | 2.3 nM and 2 nM | 2.15 |
| humanized NMC-4 variant H2, L7 (IgG1) (antibody, V domains shown) VH: QVQLQESGPGLVKPSETLSLTCTVSGFSLTDYGVDWIRQPPGKGLEWIGMIWGDGSTDYNSALKSRLTISKDNSKNQVSLKLSSVTAADTAVYYCVRDPADYGNYDYALDYWGQGTSLTVSS VL: DIQMTQSPSSLSASVGDRVTITCSASQDINKYLNWYQQKPGKAVKLLIFYTSSLHSGVPSRFSGSGSGTDFTLTISSLQPEDIATYYCQQYEKLPWTFGQGTKVEIK | 0.15 |  |  |
| humanized NMC-4 variant H9, L4 (IgG1) (antibody, V domains shown) VH: QVQLQESGPGLVKPSETLSLTCTVSGFSLTDYGVDWIRQPPGKGLEWIGMIWGDGSTDYNSALKSRVTISVDTSKNQFSLKLSSVTAADTAVYYCARDPADYGNYDYALDYWGQGTLVTVSS VL: DIQMTQSPSSLSASVGDRVTITCSASQDINKYLNWYQQKPGKAPKLLIFYTSSLHSGVPSRFSGSGSGTDYTLTISSLQPEDIATYYCQQYEKLPWTFGQGTKVEIK | 0.11 |  |  |
| humanized NMC-4 variant H5, L5 (IgG1) (antibody, V domains shown) VH: QVQLQESGPGLVKPSETLSLTCTVSGFSLTDYGVDWIRQPPGKGLEWIGMIWGDGSTDYNSALKSRVTISKDNSKNQVSLKLSSVTAADTAVYYCVRDPADYGNYDYALDYWGQGTSLTVSS VL: DIQMTQSPSSLSASVGDRVTITCSASQDINKYLNWYQQKPGKAVKLLIFYTSSLHSGVPSRFSGSGSGTDYTLTISSLQPEDIATYYCQQYEKLPWTFGQGTKVEIK | 0.18 |  |  |
| humanized NMC-4 variant H9, L7 (IgG1) (antibody, V domains shown) VH: QVQLQESGPGLVKPSETLSLTCTVSGFSLTDYGVDWIRQPPGKGLEWIGMIWGDGSTDYNSALKSRVTISVDTSKNQFSLKLSSVTAADTAVYYCARDPADYGNYDYALDYWGQGTLVTVSS VL: DIQMTQSPSSLSASVGDRVTITCSASQDINKYLNWYQQKPGKAVKLLIFYTSSLHSGVPSRFSGSGSGTDFTLTISSLQPEDIATYYCQQYEKLPWTFGQGTKVEIK | 0.11 |  |  |
| humanized NMC-4 variant H2, L5 (IgG1) (antibody, V domains shown) VH: QVQLQESGPGLVKPSETLSLTCTVSGFSLTDYGVDWIRQPPGKGLEWIGMIWGDGSTDYNSALKSRLTISKDNSKNQVSLKLSSVTAADTAVYYCVRDPADYGNYDYALDYWGQGTSLTVSS VL: DIQMTQSPSSLSASVGDRVTITCSASQDINKYLNWYQQKPGKAVKLLIFYTSSLHSGVPSRFSGSGSGTDYTLTISSLQPEDIATYYCQQYEKLPWTFGQGTKVEIK | 0.13 |  |  |
| humanized NMC-4 variant H7, L5 (IgG1) (antibody, V domains shown) VH: QVQLQESGPGLVKPSETLSLTCTVSGFSLTDYGVDWIRQPPGKGLEWIGMIWGDGSTDYNSALKSRLTISKDTSKNQVSLKLSSVTAADTAVYYCVRDPADYGNYDYALDYWGQGTSLTVSS VL: DIQMTQSPSSLSASVGDRVTITCSASQDINKYLNWYQQKPGKAVKLLIFYTSSLHSGVPSRFSGSGSGTDYTLTISSLQPEDIATYYCQQYEKLPWTFGQGTKVEIK | 0.16 |  |  |
| humanized NMC-4 variant H9, L8 (IgG1) (antibody, V domains shown) VH: QVQLQESGPGLVKPSETLSLTCTVSGFSLTDYGVDWIRQPPGKGLEWIGMIWGDGSTDYNSALKSRVTISVDTSKNQFSLKLSSVTAADTAVYYCARDPADYGNYDYALDYWGQGTLVTVSS VL: DIQMTQSPSSLSASVGDRVTITCSASQDINKYLNWYQQKPGKAPKLLIYYTSSLHSGVPSRFSGSGSGTDFTLTISSLQPEDIATYYCQQYEKLPWTFGQGTKVEIK | 0.08 |  |  |
| humanized NMC-4 variant H9, L5 (IgG1) (antibody, V domains shown) VH: QVQLQESGPGLVKPSETLSLTCTVSGFSLTDYGVDWIRQPPGKGLEWIGMIWGDGSTDYNSALKSRVTISVDTSKNQFSLKLSSVTAADTAVYYCARDPADYGNYDYALDYWGQGTLVTVSS VL: DIQMTQSPSSLSASVGDRVTITCSASQDINKYLNWYQQKPGKAVKLLIFYTSSLHSGVPSRFSGSGSGTDYTLTISSLQPEDIATYYCQQYEKLPWTFGQGTKVEIK | 0.14 |  |  |
| humanized NMC-4 variant H2, L6 (IgG1) (antibody, V domains shown) VH: QVQLQESGPGLVKPSETLSLTCTVSGFSLTDYGVDWIRQPPGKGLEWIGMIWGDGSTDYNSALKSRLTISKDNSKNQVSLKLSSVTAADTAVYYCVRDPADYGNYDYALDYWGQGTSLTVSS VL: DIQMTQSPSSLSASVGDRVTITCSASQDINKYLNWYQQKPGKAVKLLIYYTSSLHSGVPSRFSGSGSGTDYTLTISSLQPEDIATYYCQQYEKLPWTFGQGTKVEIK | 0.14 |  |  |
| humanized NMC-4 variant H9, L6 (IgG1) (antibody, V domains shown) VH: QVQLQESGPGLVKPSETLSLTCTVSGFSLTDYGVDWIRQPPGKGLEWIGMIWGDGSTDYNSALKSRVTISVDTSKNQFSLKLSSVTAADTAVYYCARDPADYGNYDYALDYWGQGTLVTVSS VL: DIQMTQSPSSLSASVGDRVTITCSASQDINKYLNWYQQKPGKAVKLLIYYTSSLHSGVPSRFSGSGSGTDYTLTISSLQPEDIATYYCQQYEKLPWTFGQGTKVEIK | 0.13 |  |  |
| humanized NMC-4 variant H4, L5 (IgG1) (antibody, V domains shown) VH: QVQLQESGPGLVKPSETLSLTCTVSGFSLTDYGVDWIRQPPGKGLEWIGMIWGDGSTDYNSALKSRLTISKDNSKNQVSLKLSSVTAADTAVYYCARDPADYGNYDYALDYWGQGTSLTVSS VL: DIQMTQSPSSLSASVGDRVTITCSASQDINKYLNWYQQKPGKAVKLLIFYTSSLHSGVPSRFSGSGSGTDYTLTISSLQPEDIATYYCQQYEKLPWTFGQGTKVEIK | 0.15 |  |  |
